# Experiments:
# [1] = target: complex of SEQ ID NO: 12 and SEQ ID NO: 16 (MBP-AK / MBP-AKA) (Ustilago maydis, UniProt A0A0D1E894); assay: IMAP fluorescence polarization assay, inhibitor measurement of aurora kinase activity; type: biochemical, U. maydis
# Protocol: Assay 3: For the commercially available IMAP Assay (Molecular Devices), 2 substrates for human aurora kinases (Kemptide, Cat #R7331, sequence 5TAMRA-LRRASLG-OH and PKAtide, Cat #R7250, Lot #130188, sequence 5FAM-GRTGRRNSI-NH2) may be purchased commercially. The assay was carried out in accordance with the instructions of the manufacturer.
# The IMAP fluorescence polarization assay (Molecular Devices) is based on the specific high-affinity interaction between phosphate groups and trivalent metal ions. The kinase reaction phospholrylates a fluorescent substrate which is then specifically bonded by the metal beads present in the stop solution. This interaction increases the fluorescence polarization, which allows kinase activity to be determined. The assay was carried out in accordance with the instructions of the manufacturer as follows:
# 1 Vol. of inhibitor in 4% DMSO or 4% DMSO
# 1 Vol. of enzyme solution
# Enzyme solution: for example SEQ ID NO: 12 and SEQ ID NO: 16 (1:1) in Complete Reaction Buffer ATP/substrate: 70 μM ATP/200 nM FAM-PKAtide or TAMRA-Kemptide in Complete Reaction Buffer
# Fluorescence polarization was measured in a Tecan Ultra microtitre plate fluorimeter using the following measurement parameters:
# Unless indicated otherwise, the activity of the AK was determined by the IMAP method as described under General Methods. […]
# [2] = tested on: SEQ ID NO: 16 (MBP-AKA fusion protein; C terminus of aurora kinase activator um03367 of U. maydis with TAG)
# Sequence of complex of SEQ ID NO: 12 and SEQ ID NO: 16 (MBP-AK / MBP-AKA) (A0A0D1E894 entry or part of it, one chain of several): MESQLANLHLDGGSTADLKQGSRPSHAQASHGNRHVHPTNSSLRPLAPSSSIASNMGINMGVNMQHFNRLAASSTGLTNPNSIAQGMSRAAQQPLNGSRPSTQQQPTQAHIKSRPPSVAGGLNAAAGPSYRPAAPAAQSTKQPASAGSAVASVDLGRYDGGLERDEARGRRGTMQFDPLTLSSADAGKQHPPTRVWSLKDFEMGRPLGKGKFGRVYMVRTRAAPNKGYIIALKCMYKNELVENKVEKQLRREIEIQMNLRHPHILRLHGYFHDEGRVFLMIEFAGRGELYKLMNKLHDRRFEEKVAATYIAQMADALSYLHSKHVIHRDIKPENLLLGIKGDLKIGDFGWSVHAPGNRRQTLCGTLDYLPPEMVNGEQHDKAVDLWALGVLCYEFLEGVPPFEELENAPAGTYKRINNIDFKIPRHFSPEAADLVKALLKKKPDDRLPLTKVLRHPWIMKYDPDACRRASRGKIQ
Compound,IC50 [1] [nM],"AK activity, radioactive assay (phosphorylation of basic myelin protein) [2]","phosphorylation of basic myelin protein, PKAtide and Kemptide (IMAP fluorescence polarization assays) [2]",phosphorylation of substrates for human aurora kinase A (IMAP assay) [2]
CN[C@@H]1C[C@H]2O[C@@](C)([C@@H]1OC)n1c3ccccc3c3c4c(c5c6ccccc6n2c5c31)C(=O)NC4 [staurosporine],2.1,,,
SEQ ID NO: 12 (MBP-AK fusion protein; aurora kinase um10119 of U. maydis with TAG),,SEQ ID NO: 12 in the presence of SEQ ID NO: 16 shows AK activity,"The purified complex of MBP-SEQ ID NO: 12 and MBP-SEQ ID NO: 16 was capable of phosphorylating both basic myelin protein and the substrates for human aurora kinases, PKAtide and Kemptide",Both substrates for human aurora kinase A were phosphorylated by SEQ ID NO: 12 in the presence of SEQ ID NO: 16

# From patent publication US20120178116A1, “POLYPEPTIDES FOR IDENTIFYING FUNGICIDALLY ACTIVE COMPOUNDS” (priority 2011, published 2012)
